Data published in publication PMC5703909, “Bactofilin-mediated organization of the ParABS chromosome segregation system in Myxococcus xanthus” (Nature Communications, 2017).

T1: His6-ParA (M. xanthus, UniProt Q1CVJ3 1-283)
T1 construct: DNA partitioning ATPase ParA of Myxococcus xanthus; Only soluble with ATP, which restricted the analyses to the dimeric form; also called ParA·ATP; purified ParA; source: E. coli Rosetta(DE3)pLysS with pAH17, purified (HisTrap HP) in the presence of magnesium-ATP
T1 sequence (looked up): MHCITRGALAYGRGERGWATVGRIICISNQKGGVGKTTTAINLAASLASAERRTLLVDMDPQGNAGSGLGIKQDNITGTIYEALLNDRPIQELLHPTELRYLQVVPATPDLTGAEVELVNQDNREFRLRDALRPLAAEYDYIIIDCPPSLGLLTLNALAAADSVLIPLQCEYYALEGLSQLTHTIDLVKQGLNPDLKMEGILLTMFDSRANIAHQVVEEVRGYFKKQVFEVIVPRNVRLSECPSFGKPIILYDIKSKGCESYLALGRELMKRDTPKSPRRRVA

B1: His6-BacP_(Δ1-115) (domain or fragment, M. xanthus, UniProt Q1D3H2 116-240, looked up)
chain: DVEPGRLPAERPAVVRPTAVTRPTATPARPTIPAARPMPPPPPSRPTPPPPPARPSAPPAVTRPSAPITRPGLGGLGSKPLPPPPPTRVERAEPQAGQAGSAEPPTPVLVGAGAKKKVVVKKKTR
modifications: biotinylated with EZ-Link NHS-PEG4-Biotin for loading on the sensor
notes: bactofilin BacP of Myxococcus xanthus lacking residues 1-115 (the C-terminal extension); no cleavage of the tag is described; also called BacPC; C-terminal fragment of BacP; source: E. coli Rosetta(DE3)pLysS with pIB154, purified (HisTrap HP)
B2: His6-PadC_(Δ1-281) (domain or fragment, M. xanthus, UniProt Q1D3H3 282-489, looked up)
chain: PEPEQRLSGRVTTVLLPLEKLQDESAFKLRPEGDVSGLATDIARLGQLFPVDVRPAGEDRYQLVCGFRRVAALRFLKRDAVQARIHLRLSDEDALVMSLAEAIHATPVGPEVLEAKRDELEAQGRLSAAVRDMLEKALATEDTLAPEGVEEEIDADELAQEVAQRLGAINQDLSLLADVFAALDESRKAELLMQLRYSSELVTYLEGL
modifications: biotinylated with EZ-Link NHS-PEG4-Biotin where it was loaded on the sensor
notes: PadC (MXAN_4634) of Myxococcus xanthus lacking residues 1-281; holds the ParB-like nuclease (ParBC) domain; no cleavage of the tag is described; also called PadCΔN; N-terminally truncated variant of PadC; source: E. coli Rosetta(DE3)pLysS with pMO002, purified (HisTrap HP, MonoQ)

How the values were obtained:
His6-PadC_(Δ1-281) = molecular target: B2; assay: BLI; BLItz, streptavidin (SAX) sensors loaded with biotinylated BacPC, PadCΔN as analyte; 25 mM HEPES/KOH pH 7.6, 100 mM KCl, 10 mM MgSO4, 1 mM DTT, 10 µM BSA, 0.01% Tween; conditions: both partners purified
His6-ParA = molecular target: T1, His6-ParA; assay: BLI; BLItz, streptavidin (SAX) sensors loaded with biotinylated PadCΔN, ParA as analyte; BLItz binding buffer with 150 mM potassium glutamate, 5% glycerol and 10 mM ATP; conditions: both partners purified

Kd (His6-PadC_(Δ1-281))	Kd (His6-ParA)	Binder
340 nM		B1
	900 nM	B2
